According to patent publication US5928933A, “Process for the enzymatic resolution of N-(alkoxycarbonyl)-4-ketoproline alkyl esters or N-(alkoxycarbonyl)-4-hydroxyproline alkyl esters using Candida antarctica lipase B” (priority 1998, dated 1999):

T1: Candida antartica lipase fraction B (CALB) (Moesziomyces antarcticus, UniProt P41365)
T1 construct: purchased Boehringer Mannheim CHIRAZYME L-2
T1 sequence (P41365 26-342): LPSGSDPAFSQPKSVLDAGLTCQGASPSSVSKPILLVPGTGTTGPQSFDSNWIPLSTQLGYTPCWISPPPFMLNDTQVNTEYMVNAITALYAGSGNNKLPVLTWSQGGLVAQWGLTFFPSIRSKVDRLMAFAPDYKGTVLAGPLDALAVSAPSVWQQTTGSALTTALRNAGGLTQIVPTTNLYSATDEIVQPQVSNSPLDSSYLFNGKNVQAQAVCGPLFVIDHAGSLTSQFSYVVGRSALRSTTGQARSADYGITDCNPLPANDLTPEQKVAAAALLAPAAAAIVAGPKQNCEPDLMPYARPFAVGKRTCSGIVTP

B1: protease, trypsin bovine pancreas: commercial trypsin, source bovine pancreas (protein, UniProt P00760 24-246, looked up)
Serine protease 1: IVGGYTCGANTVPYQVSLNSGYHFCGGSLINSQWVVSAAHCYKSGIQVRLGEDNINVVEGNEQFISASKSIVHPSYNSNTLNNDIMLIKLKSAASLNSRVASISLPTSCASAGTQCLISGWGNTKSSGTSYPDVLKCLKAPILSDSSCKSAYPGQITSNMFCAGYLEGGKDSCQGDSGGPVVCSGKLQGIVSWGSGCAQKNKPGVYTKVCNYVSWIKQTIASN
B2: lipase (Chirazyme L7): commercial enzyme preparation, source porcine pancreas (protein, UniProt P00591 1-450, looked up)
Pancreatic triacylglycerol …: SEVCFPRLGCFSDDAPWAGIVQRPLKILPWSPKDVDTRFLLYTNQNQNNYQELVADPSTITNSNFRMDRKTRFIIHGFIDKGEEDWLSNICKNLFKVESVNCICVDWKGGSRTGYTQASQNIRIVGAEVAYFVEVLKSSLGYSPSNVHVIGHSLGSHAAGEAGRRTNGTIERITGLDPAEPCFQGTPELVRLDPSDAKFVDVIHTDAAPIIPNLGFGMSQTVGHLDFFPNGGKQMPGCQKNILSQIVDIDGIWEGTRDFVACNHLRSYKYYADSILNPDGFAGFPCDSYNVFTANKCFPCPSEGCPQMGHYADRFPGKTNGVSQVFYLNTGDASNFARWRYKVSVTLSGKKVTGHILVSLFGNEGNSRQYEIYKGTLQPDNTHSDEFDSDVEVGDLQKVKFIWYNNNVINPTLPRVGASKITVERNDGKVYDFCSQETVREEVLLTLNPC

Legend:
Assay type in all cases: biochemical
[1] = target: T1, Candida antartica lipase fraction B (CALB); experiment: Relative rates of hydrolysis of N-(alkoxycarbonyl)-trans-4-hydroxy-L-proline methyl esters by CALB; conditions: for time to complete hydrolysis of the methyl ester / initial reaction rate: 50 mM substrate, 3.0 mg/mL CALB, 25° C.; for time to complete hydrolysis of the methyl ester: 0.100M potassium phosphate pH 7.0; for initial reaction rate: pH 7.0
Experimental: A 2.0 mL aqueous solution containing 50 mM N-(methoxycarbonyl)-trans-4-hydroxy-L-proline methyl ester, or 50 mM N-(ethoxycarbonyl)-trans-4-hydroxy-L-proline methyl ester, or 50 mM N-(tert-butoxycarbonyl)-trans-4-hydroxy-L-proline methyl ester in 0.100M potassium phosphate (pH 7.0) and 3.0 mg/mL of Candida antartica lipase fraction B was mixed at 25° C. The reactions were analyzed by removal of 0.200 mL aliquots at pre-determined times and mixing the sample with an equivalent volume of 0.100M propionic acid (HPLC internal standard) in water, and filtering the resulting solution through a 10K molecular weight cut-off filter to remove the enzyme. The filtrate was then analyzed by high pressure liquid chromatography on a HPX-87H column (Bio-Rad, 30 cm×7.8 mm) to determine the percent conversion of the N-(alkoxycarbonyl)-trans-4-hydroxy-L-proline methyl ester. Complete hydrolysis of the methyl ester of the N-methoxy-, N-ethoxy-, and N-tert-butoxycarbonyl derivatives occurred in 5 h, 2 h, and 6 h, respectively, and the initial reaction rates were 5.7, 18.7, and 3.3 micromoles/h/mg enzyme catalyst, respectively.

[2] = Enzyme screens for resolution of diastereomeric mixture CHLP(MEMC)/THLP(MEMC) (Example 13); conditions: 0.050M each isomer, 5 h, 5.0 to 50 mg/mL enzyme, 25° C.; for conv. (percent conversion of the diastereomeric mixture): 0.100M potassium phosphate pH 7.0; for % de (diastereomeric excess of the cis-L-isomer): pH 7.0
Experimental: (§1) An aqueous solution containing 0.050M N-(methoxycarbonyl)-trans-4-hydroxy-L-proline methyl ester and 0.050M N-(methoxycarbonyl)-cis-4-hydroxy-L-proline methyl ester in 0.100M potassium phosphate (pH 7.0) was mixed with 5.0 to 50 mg/mL of commercial enzyme preparations (listed in the table below) at 25° C. The reactions were analyzed after 5 h by removal of a 0.200 mL sample and mixing with an equivalent volume of 0.100M propionic acid (HPLC internal standard) in water. The resulting solution was filtered through a 10K molecular weight cut-off filter to remove the enzyme and the filtrate analyzed by high pressure liquid chromatography on a HPX-87H column (Bio-Rad, 30 cm×7.8 mm) to determine the percent conversion of the diastereomeric mixture, and the diastereomeric excess of the N-(methoxycarbonyl)-cis-4-hydroxy-L-proline methyl ester.

[3] = Enzyme screens for resolution of racemic N-(acetyl)-4-keto-D,L-proline methyl ester (Example 7, comparative); conditions: 0.100M racemate, 5 h, 5.0 to 30 mg/mL enzyme, 25° C.; for conv. (percent conversion of the racemate): 0.20M sodium succinate pH 6.0; for % ee (enantiomeric excess of the D-isomer): pH 6.0
Experimental: (§2) An aqueous solution (1.0 mL) containing 0.100M racemic N-(acetyl)-4-keto-D,L-proline methyl ester in 0.20M sodium succinate (pH 6.0) was mixed with 5.0 to 30 mg/mL of commercial enzyme preparations (listed in the table below) at 25° C. […] The dichloromethane extract was then analyzed by chiral gas chromatography on a Chiraldex G-TA column (Advanced Separation Technologies, Inc., 50 m×0.32 mm ID) to determine the percent conversion of the racemate, and the enantiomeric excess of the N-(acetyl)-4-keto-D-proline methyl ester.

[4] = Enzyme screens for resolution of diastereomeric mixture CHDP(MEMC)/THLP(MEMC) (Example 9); conditions: 0.050M each isomer, 5 h or 24 h, 5.0 to 50 mg/mL enzyme, 25° C.; for conv. (percent conversion of the diastereomeric mixture): 0.100M potassium phosphate pH 7.0; for % de (diastereomeric excess of the D-isomer, CHDP(MEMC)): pH 7.0
Experimental: as §1, with “aqueous solution (1.0 mL) containing 0.050M” for “aqueous solution containing 0.050M”, “and 0.050M N-(methoxycarbonyl)-cis-4-hydroxy-D-proline methyl ester” for “and 0.050M N-(methoxycarbonyl)-cis-4-hydroxy-L-proline methyl ester”, “after 5 h or 24 h by” for “after 5 h by”, “conversion of each isomer of the diastereomeric” for “conversion of the diastereomeric”, “of the N-(methoxycarbonyl)-cis-4-hydroxy-D-proline methyl ester.” for “of the N-(methoxycarbonyl)-cis-4-hydroxy-L-proline methyl ester.”

[5] = Enzyme screens for resolution of racemic N-(methoxycarbonyl)-4,4-dimethoxy-D,L-proline methyl ester (Example 8, comparative); conditions: 0.100M racemate, 6 h or 17 h, 5.0 to 30 mg/mL enzyme, 25° C.; for conv. (percent conversion of the racemate): 0.25M potassium phosphate pH 7.0; for % ee (enantiomeric excess of the D-isomer): pH 7.0
Experimental: as §2, with “N-(methoxycarbonyl)-4,4-dimethoxy-D,L-proline” for “N-(acetyl)-4-keto-D,L-proline”, “0.25M potassium phosphate” for “0.20M sodium succinate”, “7.0)” for “6.0)”, “ethyl acetate” for “dichloromethane”, “N-(methoxycarbonyl)-4,4-dimethoxy-D-prolinemethyl” for “the N-(acetyl)-4-keto-D-proline methyl”

[6] = Enzyme screens for resolution of racemic N-(methoxycarbonyl)-4-keto-D,L-proline methyl ester (Example 1); conditions: 0.100M racemate, 5.0 to 50 mg/mL enzyme, 25° C., optimum; for conv. (percent conversion of the racemate): 0.20M sodium succinate pH 6.0, 5 h or 0.20M sodium acetate pH 5.0, 24 h; for % ee (enantiomeric excess of the D-isomer; L-isomer with porcine liver esterase): pH 6.0, 5 h or pH 5.0, 24 h
Experimental: An aqueous solution (1.0 mL) containing 0.100M racemic N-(methoxycarbonyl)-4-keto-D,L-proline methyl ester in either 0.20M sodium succinate (pH 6.0) or 0.20M sodium acetate (pH 5.0) was mixed with 5.0 to 50 mg/mL of commercial enzyme preparations (listed in the table below) at 25° C. […] The dichloromethane extract was then analyzed by chiral gas chromatography on a Chiraldex G-TA column (Advanced Separation Technologies, Inc., 50 m×0.32 mm ID) to determine the percent conversion of the racemate, and the enantiomeric excess of the N-(methoxycarbonyl)-4-keto-D-proline methyl ester.

Molecule	time to complete hydrolysis of the methyl ester [1] [h]	initial reaction rate [1]	initial rate of methyl ester hydrolysis, times faster than THLP(MEBOC) ([1]; CALB) [times]	initial rate of methyl ester hydrolysis, times faster than THLP(MEEC) as printed ([1]; CALB)	conv. (percent conversion of the diastereomeric mixture) [2] [%]	% de (diastereomeric excess of the cis-L-isomer) [2] [%]	conv. (percent conversion of the racemate) [3] [%]	% ee (enantiomeric excess of the D-isomer) [3] [%]	conv. (percent conversion of the diastereomeric mixture) [4] [%]	% de (diastereomeric excess of the D-isomer, CHDP(MEMC)) [4] [%]	conv. (percent conversion of the racemate) [5] [%]	% ee (enantiomeric excess of the D-isomer) [5] [%]	conv. (percent conversion of the racemate) [6] [%]	% ee (enantiomeric excess of the D-isomer; L-isomer with porcine liver esterase) [6] [%]
COC(=O)[C@@H]1C[C@@H](O)CN1C(=O)OC(C)(C)C [THLP(MEBOC), N-(tert-butoxycarbonyl)-trans-4-hydroxy-L-proline methyl ester]	6	3.3 micromoles/h/mg enzyme catalyst	–	–	–	–	–	–	–	–	–	–	–	–
CCOC(=O)N1C[C@H](O)C[C@H]1C(=O)OC [THLP(MEEC), N-(ethoxycarbonyl)-trans-4-hydroxy-L-proline methyl ester]	2	18.7 micromoles/h/mg enzyme catalyst	~1.7	approximately 3.3 times	–	–	–	–	–	–	–	–	–	–
B1	–	–	–	–	0	0	0	0	0	0	0	0	0	0
B2	–	–	–	–	0	0	0	0	0	0	10	0	0	0
